This is an account of results in the supplement of paper PMC5998384.

Series [1] deals with HeLa Kyoto. Briefly: thermal stability score vs G1/S (z-score of summed log2 fold changes over temperatures); higher = more thermally stable than in G1/S.
Series [2] concerns HeLa Kyoto. Briefly: solubility in G1/S (NP-40 vs SDS abundance) (log2 ratio); higher = more soluble. The settings on record: cell cycle stage: G1/S.
Series [3] concerns HeLa Kyoto. Briefly: solubility change mitosis vs G1/S (difference of NP-40 vs SDS log2 ratios) (log2 ratio difference); higher = more soluble in mitosis.
[4] abbreviates: cell cycle stage: early G1 (4.5 h after nocodazole release).
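Throughout, for solubility change mitosis vs G1/S (difference of NP-40 vs SDS log2 ratios): synchronized HeLa Kyoto cells (double thymidine block for G1/S, nocodazole release for mitosis), protein amounts in NP-40 versus SDS lysates quantified by mass spectrometry, three biological replicates.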
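Throughout, for solubility in G1/S (NP-40 vs SDS abundance): HeLa Kyoto cells arrested at G1/S by double thymidine block, proteins quantified by TMT10plex mass spectrometry in mild NP-40 versus SDS extracts, three biological replicates.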
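Throughout, for thermal stability score vs G1/S (z-score of summed log2 fold changes over temperatures): synchronized HeLa Kyoto cells, proteins quantified by TMT10plex mass spectrometry, three biological replicates, mitosis taken 0.5 h after nocodazole release, G1/S directly after double thymidine block.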

For the sequence “MSQGSPGDWAPLDPTPGPPASPNPFVHELHLSRLQRVKFCLLGALLAPIRVLLAFIVLFLLWPFAWLQVAGLSEEQLQEPITGWRKTVCHNGVLGLSRLLFFLLGFLRIRVRGQRASRLQAPVLVAAPHSTFFDPIVLLPCDLPKVVSRAENLSVPVIGALLRFNQAILVSRHDPASRRRVVEEVRRRATSGGKWPQVLFFPEGTCSNKKALLKFKPGAFIAGVPVQPVLIRYPNSLDTTSWAWRGPGVLKVLWLTASQPCSIVDVEFLPVYHPSPEESRDPTLYANNVQRVMAQALGIPATECEFVGSLPVIVVGRLKVALEPQLWELGKVLRKAGLSAGYVDAGAEPGRSRMISQEEFARQLQLSDPQTVAGAFGYFQQDTKGLVDFRDVALALAALDGGRSLEELTRLAFELFAEEQAEGPNRLLYKDGFSTILHLLLGSPHPAATALHAELCQAGSSQGLSLCQFQNFSLHDPLYGKLFSTYLRPPHTSRGTSQTPNASSPGNPTALANGTVQAPKQKGD [LPCAT4]”, the values for the thermal stability score in the series with HeLa Kyoto [1] (setting [4]) and with HeLa Kyoto [1] (cell cycle stage: mitosis) were 0.358 and 0.234, respectively. Further, the “solubility in G1/S (log2)” value with HeLa Kyoto [2] is -0.0461. In addition, the “solubility change mitosis (log2)” value in the series with HeLa Kyoto [3] was -0.122.
“MSSACDAGDHYPLHLLVWKNDYRQLEKELQGQNVEAVDPRGRTLLHLAVSLGHLESARVLLRHKADVTKENRQGWTVLHEAVSTGDPEMVYTVLQHRDYHNTSMALEGVPELLQKILEAPDFYVQMKWEFTSWVPLVSRICPNDVCRIWKSGAKLRVDITLLGFENMSWIRGRRSFIFKGEDNWAELMEVNHDDKVVTTERFDLSQEMERLTLDLMKPKSREVERRLTSPVINTSLDTKNIAFERTKSGFWGWRTDKAEVVNGYEAKVYTVNNVNVITKIRTEHLTEEEKKRYKADRNPLESLLGTVEHQFGAQGDLTTECATANNPTAITPDEYFNEEFDLKDRDIGRPKELTIRTQKFKAMLWMCEEFPLSLVEQVIPIIDLMARTSAHFARLRDFIKLEFPPGFPVKIEIPLFHVLNARITFGNVNGCSTAEESVSQNVEGTQADSASHITNFEVDQSVFEIPESYYVQDNGRNVHLQDEDYEIMQFAIQQSLLESSRSQELSGPASNGGISQTNTYDAQYERAIQESLLTSTEGLCPSALSETSRFDNDLQLAMELSAKELEEWELRLQEEEAELQQVLQLSLTDK [ANKRD13A]”: the results for the thermal stability score in the series on HeLa Kyoto [1] (setting [4]) and in the series with HeLa Kyoto [1] (cell cycle stage: mitosis) were 0.86 and 0.416, respectively. In addition, the “solubility in G1/S (log2)” value in the series on HeLa Kyoto [2] is -0.139. In the series on HeLa Kyoto [3], the “solubility change mitosis (log2)” value is -0.0203.
Taken in the same sequence, the figures for “MSSLGASFVQIKFDDLQFFENCGGGSFGSVYRAKWISQDKEVAVKKLLKIEKEAEILSVLSHRNIIQFYGVILEPPNYGIVTEYASLGSLYDYINSNRSEEMDMDHIMTWATDVAKGMHYLHMEAPVKVIHRDLKSRNVVIAADGVLKICDFGASRFHNHTTHMSLVGTFPWMAPEVIQSLPVSETCDTYSYGVVLWEMLTREVPFKGLEGLQVAWLVVEKNERLTIPSSCPRSFAELLHQCWEADAKKRPSFKQIISILESMSNDTSLPDKCNSFLHNKAEWRCEIEATLERLKKLERDLSFKEQELKERERRLKMWEQKLTEQSNTPLLPSFEIGAWTEDDVYCWVQQLVRKGDSSAEMSVYASLFKENNITGKRLLLLEEEDLKDMGIVSKGHIIHFKSAIEKLTHDYINLFHFPPLIKDSGGEPEENEEKIVNLELVFGFHLKPGTGPQDCKWKMYMEMDGDEIAITYIKDVTFNTNLPDAEILKMTKPPFVMEKWIVGIAKSQTVECTVTYESDVRTPKSTKHVHSIQWSRTKPQDEVKAVQLAIQTLFTNSDGNPGSRSDSSADCQWLDTLRMRQIASNTSLQRSQSNPILGSPFFSHFDGQDSYAAAVRRPQVPIKYQQITPVNQSRSSSPTQYGLTKNFSSLHLNSRDSGFSSGNTDTSSERGRYSDRSRNKYGRGSISLNSSPRGRYSGKSQHSTPSRGRYPGKFYRVSQSALNPHQSPDFKRSPRDLHQPNTIPGMPLHPETDSRASEEDSKVSEGGWTKVEYRKKPHRPSPAKTNKERARGDHRGWRNF [ZAK]” were -0.231, -2.89, -1.14 and 0.649.
For the sequence “MTGLYELVWRVLHALLCLHRTLTSWLRVRFGTWNWIWRRCCRAASAAVLAPLGFTLRKPPAVGRNRRHHRHPRGGSCLAAAHHRMRWRADGRSLEKLPVHMGLVITEVEQEPSFSDIASLVVWCMAVGISYISVYDHQGIFKRNNSRLMDEILKQQQELLGLDCSKYSPEFANSNDKDDQVLNCHLAVKVLSPEDGKADIVRAAQDFCQLVAQKQKRPTDLDVDTLASLLSSNGCPDPDLVLKFGPVDSTLGFLPWHIRLTEIVSLPSHLNISYEDFFSALRQYAACEQRLGK [NUS1]”, the thermal stability score in the series with HeLa Kyoto [1] (setting [4]) is -0.859; in the series on HeLa Kyoto [1] (cell cycle stage: mitosis) it was 0.124. For the same sequence, the “solubility in G1/S (log2)” value in the series on HeLa Kyoto [2] amounted to 0.00319. Besides, the “solubility change mitosis (log2)” value in the series on HeLa Kyoto [3] came to 0.162.
Taken in the same sequence, the figures for “MTQPVPRLSVPAALALGSAALGAAFATGLFLGRRCPPWRGRREQCLLPPEDSRLWQYLLSRSMREHPALRSLRLLTLEQPQGDSMMTCEQAQLLANLARLIQAKKALDLGTFTGYSALALALALPADGRVVTCEVDAQPPELGRPLWRQAEAEHKIDLRLKPALETLDELLAAGEAGTFDVAVVDADKENCSAYYERCLQLLRPGGILAVLRVLWRGKVLQPPKGDVAAECVRNLNERIRRDVRVYISLLPLGDGLTLAFKI [COMTD1]” were -0.487, 0.44, 0.16 and 0.00811.
